Experimental findings from PMC2774812 (Journal of molecular biology, 2009) are described below.

Residue numbers refer to the chain shown, from its start. Names and notes keep the numbering of the source.

This series concerns the molecule itself.

B1: brome mosaic virus (BMV) capsid protein, wild type (natural protein)
chain: STSGTGKMTRAQRRAAARRNRWTARVQPVIVEPLAAGQGKAIKAIAGYSISKWEASSDAITAKATNAMSITLPHELSSEKNKELKVGRVLLWLGLLPSVAGRIKACVAEKQAQAEAAFQVALAVADSSKEVVAAMYTDAFRGATLGDLLNLQIYLYASEAVPAKAVVVHLEVEHVRPTFDDFFTPVYR
Turning to B1, the binding result is “binds”.

B2: brome mosaic virus (BMV) capsid protein R142A (natural protein)
chain: B1 chain with R141A
As for B2, the binding result is on record as “binds”.

B3: brome mosaic virus (BMV) capsid protein D148A (natural protein)
chain: B1 chain with D147A
In the case of B3, the binding result was “binds”.
